The DeepSol protein solubility set

assay: soluble on expression in E. coli; label from the status in PepcDB or PDB records

Sequence	soluble on expression in E. coli
NKFECNLVHSKVPMGKFYFRSEPNNKISFISDIRGEGKEWQGATLISQNAPWGEELYRKVESSLTVTKPSRRFVFRKGAPSLMKAIAGGSWITLVLEGKDASALSEVRIPTIQIQKALGEFNACRERLPK	not soluble
MYNNSELRKIQQKKLEILIDIAKFCNENKIRYWLDSGTLLGAVRHGGFIPWDDDIDIIIMQEDAKFLKENYKSENFEIVNTDEEGINFYKVISKKEQVQVGDSIAELDIDIFLVTYYPDSLALKFWNSFFHLKKNRIDRFSFSLFFTNILINLKRKLEKTKLFNYKNIEKKISYILDEAKKKNKAMPNIAYTPDCGFYLIIWREEEIFPLKKMKFEGIEFSIPNNYDTYLKKMYYSYMDLPPKEKRVPEHYQDKELKLIIKLEHHHHHH	not soluble
MLSYHTDIPTDLPLLRQAVEAIRREESGGAVPDSDRPRVIYEARNRLYAIRTAQGEQVVKSFRIPIAIQRVVYSFFRPSKAARSYRNAIRLGRCGIGTPRPSGYAIEREKGLLCRSYYVCESMHDCRDIRLSMQGVEGGEALLRALAGFIARMHRAGIHHIDLSPGNVLYRTDEKGEYSFYLIDLNRMKFYDKPIVGRKAYANFARLSFCPAVSKQLAEYYAEAQGLNTDGVVQGVQSESDRFFRSKVRKYARKALVREQKRMSRSAFRRAYIRYRSVRLIRKLTGCTRLFRIENDLYTSYLEVGDLRHTLKRAEGYSSPKNVQ	not soluble
MGSDKIHHHHHHMKYDVAVYIGRFQPFHNGHLSVVQRSLEVAQHLLILTGSHLASPDTRNPWSSEEREEMIRAALPANWQKRVSFIPIRDHLYSDNLWLTEIQQKVLEEAGEEARIVLVGHRKDRSSYYLDLFPQWDFLEVPRLEAVHSTAIRDAYFSGSEESNYAAALPAGVADYLTAYQQTGRYQWLRDEADYIKGYRQAWAVAPYAPTFVTTDAIVIQSGHVLVVRRKARPGKGLIALPGGYIQQDETVLEGMLRELREETGLKVPKPVLQGSIVENRVFDAPQRSQRGRIITHAFCIHLKPGPLPSVRGGDDAEKAWWMSLADLYAHEDQFFEDHFQIIQHFVSRT	not soluble
MEDIYYSPRYEDDEYEYRHVILPQAVSRKVPKGRLLSEAEWRRAGVQQSLGWEHYMVHNPEKHILLFRRKRHFTKADEERAKMELLRDMEVFNRAQQQTTATDEKLNAVFYEFVNKAV	not soluble
MDYLYHPYPSQRMTVFAKNGVVATSQPLAAQAGLDVLKKGGNAIDAAIAAAACLTVVEPTSNGIGGDAFALVWTDGKLYGLNASGYAPKSISIEALKELGYTEMPKYGFAPVTVPGAPAAWAALSKRFGRLPLVETLAPAIAYAENGYPVSPVLGKYWAAAFRTYKEALRGPEFAAWFATFAPGGRAPKIGEVWASPDHAATLRSIAETEAESFYRGELAEKIAAFSKQYGGFLAADDLAEYEPEWVEPISVSYRGYEVWEIPPNGQGIVALMALNIMNGFDVPSVSDVETHHRQIEAMKLAFADGKAYIADRRYMNCSPDELLSESFAAMRRAQIGEEALTPEPGTPPKGGTVYLAAADGEGNMVSFIQSNYMGFGSGLVVPGTGIALHNRGHNFAFDESHPNGLAPRKKPYHTIIPGFLTKGGAPVGPFGVMGGFMQPQGHLQVIMNTVDFDLNPQAALDAPRWQWMEGKTVLVEPHFPRHIAEALARKGHDIRLALDSGLFGRGQIIWRDPDTGVLAAGTEPRTDGAVAAW	not soluble
MRGSHHHHHHGMASMAVSESQLKKMVSKYKYRDLTVRETVNVITLYKDLKPVLDSYVFNDGSSRELMNLTGTIPVPYRGNTYNIPICLWLLDTYPYNPPICFVKPTSSMTIKTGKHVDANGKIYLPYLHEWKHPQSDLLGLIQVMIVVFGDEPPVFSRP	soluble
MSKQIVILGAGYGGLLAALNVRKYYSKSEAQVTVINQYPTHQIITELHRLAAGNVSEQAVAMPLTKLFKGKDIDLKIATVESFSVDSKEIKLAGGTTLSYDALVVALGSKTAYFGIPGLEENSMVLKSAADANKIYKHVEDRIREYAKTKNEADATIVIGGGGLTGVELVGELADIMPKLAKSHGVNPKEVKLLLVEAGPKILPVLPDHLIERATTSLEARGVTFLTGLPVTNVAGNEIDLKDGQKLVANTFVWTGGVQGNPLIGESGLEVNRGRATVDAYLQSTSHKDVFVAGDSAVVFAPDGRPYPPTAQIAWQMGELIGYNLYAALEGKAFEEFAPVNSGTLASLGRKDAVATIGASNTPLKGLPASLMKEASNVRYLSHIKGLFSLAY	not soluble
MPFENAPHLVFWEVTKACPLTCKHCRANAIDKPLPGELNTEESRKLLEDIARFGKVVIVFTGGDPLSRSDIFELMEYAKSLGLVVSIAPSPSHRLDDETMKIISNYARYMSISLDGATSQTHDWLRGLGSYKYALRGIELGLKYGIQVQVNTLVWKKSYSELPFVVKLLKEMGVKIWEVFFLIPVGRGTTELDIPRDKYKDVIDFLVEATRYDLIVRTVEAPFFRRAKLEYTPATTNDNELVSTLRELLGEPVKEADKSILPTRDGAGVIFIGYNGDVYPSGFLPLYLGNVKKESLVDIYRKSEVLKKIKDSRFEGKCGICKYNNICGGSRARAFAVYNNPFAEDPMCPY	not soluble
LSGYAQAGFSSLWLPTASSEKENYNTFDVKRITLRANVAITDKWSVTFIPDFAKRYTNLELYTSFRTCSGFGIRLGQFKTAFSIENQLSPTTIETISCGSMATNFLAAGNGSDPLMGAQSGRDVGLEIYGDLFNDILGYRLGVLNGQGINTLDGSKHKTLEGSLTLRPIECLSFTGSFMSGKTAALNDAPIKINSKQIMAGDLYDRSRWSVGGMFRSKYLDLRSEYLEGKDDDMISKGFYVTGVGRLFKNLDIIGSYDFMDLYERQQVHNITAGLQYWFFPKCRLQAQYVLSNPKGEYNNTHALLTQVQVAF	not soluble
MGSDKIHHHHHHMPQRIDLRVRPEEATDEQILRKHVARQTKTDPTDIHTIIIRRRSIDARQRQVYVNLGLEVYSGSESPVEDDFSDLIYPSVEGKTAVIVVGAGPAGLFAALRLIELGLRPIILERGKSVHERRADIARIPKEGHVDPESNYGFGEGGAGAFSDGKLYTRSKKRGDITKILRILCKHGAQPSILIDAHPHIGTDRLPKVIENIRHQILAAGGEVHFSCRMESLIIHNGQVVGARDNKGREYCGPVILATGHSARDIYRYLHRNGIRMEAKGTAVGVRLEHPQALIDQLRYHNPKGRGLYLPPAEYTYTAQVEGRGVYSFCMCPGGFVVPASTAPDQTVVNGMSPANRGSRWANSGLVVEIHPEDVLSTPTNDPLALMNWIERLEGESWTQARCSLRAPAQRMTDFLSGRSSVDLPKSSYNMGLTPSRLDEWLPSFITKRIQKAFQLFDRQTKGFLTAEAQLIALESRTSSPVRILRESTSCEHPLLRGLFPCGEGAGYAGGIVSAAMDGERCAEGVASYLG	not soluble
MTKVIAITGKGGTGKTAVAALLIRSLSKKGQFILAVDADADTNLPETLGCENVKTIGDAKEFLQAEITKPRPDNPDMNKESVLQSKVYEIIEEMPGYDLLVMGRPEGSGCYCYVNNLLRGIMDKLVKNYDLVVIDAEAGLEHFSRKIIRDIDDLIVVTDASRRGFRTAERIHELVNELESNIGSIHVIANKVTDANREKLVKLAEELKLNLIGMIPLDPKIEEMDIKGIPLFEIPDDSVAAVEIENIVKKLGF	not soluble
MGSDKIHHHHHHMSKSITRKIQLTGGSTYIVSLPKEWIKALSLSAGDEVEIYQDTDMKLLIVPKSANTTDQKEIKKIIHCDNVTSEAIIREFIAYYIAGFSSVSITCPRMSSSTRAYIKDVVRRRLLGAEVIEEDVSTISIQFLVDEKELSIKKAISRAFTISYNMLRDSLEAISKADIELAKEISGRDDEVDRFFFYIARQLTISVKAINVLDSEGYNLTQMVDIYSVAKTIERVGDHANRIASLVEDVSKFSNKEDLVNLGLTILESYKSAMNAFLNEKKDIAHSLISNIEIFEKLRELQEIAIKSNDNPKIITSTSMTVESLRRVARYSADIAEATIDILAKSNK	not soluble
MGSDKIHHHHHHMPVTHLAGALCHPTDCTLRASNSQHIATRFNEHSSVSHTRDLDRVQVAERWSRIKECNYVPVKVANTRADLGESLVWDERSGVLYFVDISGGRINGLTPDGEVDCLYESAARIGALALTDRGNLIFTEDASVAIFDVPTRKVSQHSASVHPRSTYRFNDGACDPQGRFVTGLMDEALSDNTGALFRFDWQLSDQVIHDDMGLPTGLAWSHDGHTVYFVDSAARAIYRAEYLIEGRLGAVTLFAETPAELGRPDGLALDREGGLWVCQYHGSCLLRYDRHGYLTDQVLMPVPCPTSCCFGGPGMNTLYISTARYDMTPEDLHHYPDAGDLYAIRPETGGVARHSFKE	not soluble
MFISVVIPTYDRQPILEKCLRALEAQQLSASTVINEYEIVLVDDGSTDGTLDWLATHKEEFPHVRWFEQDHAGPAAARNLGVEKARGDIIIFIDSDLVVLDNFLQAHADALLQGQEKLGSDRFFTYGAVINTCNFDNPTAEPYKITDFSAAFFATGNVAIPKHWLEQAGLFDTGFQLYGWEDLELGVRLKNLGLQLIKCPAAVGYHWHPPFNLEQVPNLIEKEIQRGRMGVLFYKKHPTWEVRMMIQMTWLHRLLWGILSLNGALNENTMAPLLQWLIKSGKPQLALEIARIFLNWYNVKGVYQAYSQMQKVSLEHHHHHH	soluble
MSATGKVSRPIQVFTRANYFFKLIFQFKVRKYNSLTVERIFIRAMCGSDDSFDDFVPDSQEPASSRTRNQDHLDDDEVPCSQRPDAANDTMVEDLDEGDEPAHDESEDIIKILVATDIHCGYGENKANIHMDAVNTFEEVLQIATEQKVDMILLGGDLFHENNPSREVQHRVTQLLRQYCLNGNPIALEFLSDASVNFNQSVFGHVNYYDQNLNVGLPIFTIHGNHDDLSGKGLTALDLLHESGLVNLFGKHSNIQEFIVSPILLRKGETRLALYGIGSQRDDRLVRAFKNNSISFLRPNAGAEDWFNLFVLHQNRPRRAMHRSTGNFLPESLIPQFFDLLIWGHEHECKPDPQYVASSEAVGDGFYILQPGSTVATSLTPEEALQKNAFLIKIKGRKFASKPIPLQTVRPMVCDELLLDKIPPGSRPILKTDRPKHTDGRYIDEIAIEAKINEMITTAKAKRRPRQPELPLIRLKVIYDGDWLNITPANAKRIGLRYENVVANAVDMVFIKKNNKPKEGKLQTENEKNITEMADEMGQVSATNLQTIINDYFINQPLVDQMTVLKPIGIGRALEQYSAIEEGGLATSANRNFDSCLMHQIDVVRKTLKKMPLPPINDPSDLDKFRDLITKDLYDMKKADSERFKNPVADVEMEEDEDDPQYYMPPQSTSRTNYASGSEDEVANSDEEMGSSISRHSKQPTTRGRGRGARGAGASRETTRGRSNKVVSTRQIDSDGFEIINDSPSPPPASRSTRGKARGKSAPSKKRDLSFF	not soluble
MGSDKIHHHHHHAMSSCGSTKEAASLSSLNGEWNIIEVNGSAIVPAENQELPFIGFDTATGKVYGNSGCNRMMGSIDLNSKPGTIDMSRLGSTRMACPDMTTEQNVLNALGQVKSYKKLGKHNMALCNASNRPVVVLQKKASDVKLSALNGEWKIEEVNGEAIPSGMEKQPFINFDVRKKSIHGNAGCNLINGGFETDKENPRSISFPNVISTMMACPDMEVEGKVMKAINEVKSFDVLSGGGIGFYSADGTLVMVLVKK	not soluble
MDSQAQVLILLLLWVSGTCGDIVMSQSPSSLAVSAGEKVTMSCKSSQSLLNSRTRKNYLAWYQQKPGQSPKLLIYWASTRESGVPDRFTGSGSGTDFTLTISSVQAEDLAVYYCKQSYNLYTFGGGTKLEIKRADAAPTVSIFPPSSEQLTSGGASVVCFLNNFYPKDINVKWKIDGSERQNGVLNSWTDQDSKDSTYSMSSTLTLTKDEYERHNSYTCEATHKTSTSPIVKSFNRNEC	soluble
